# Assay results from patent publication US20230416363A1 (KADMON, published 2023).
# Residue numbers refer to the chain shown, from its start.
# B1: 23H9 (antibody, human IgG1, V domains shown)
# VH: QVQLVQSGAEVKKPGSSVKVSCKASGGTFSSSVISWVRQAPGQGLEWMGGIIPIFGTANYAQKFQGRVTITADESTSTAYMELSSLRSEDTAVYYCAREGLGCSGGSCYSGYYYGMDVWGQGTTVTVSS
# VL: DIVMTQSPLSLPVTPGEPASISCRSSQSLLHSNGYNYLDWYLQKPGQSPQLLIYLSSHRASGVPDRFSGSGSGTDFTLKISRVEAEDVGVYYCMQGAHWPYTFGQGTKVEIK
# B2: 23A8 (antibody, human IgG1, V domains shown)
# VH: EVQLLESGGGLVQPGGSLRLSCAASGFTFSSSAMHWVRQAPGKGLEWVSGISGSGSSTYYADSVKGRFTISRDNSKNTLYLQMNSLRAEDTAVYYCARDNNYYYYMDVWGKGTTVTVSS
# VL: DIQMTQSPSSLSASVGDRVTITCRASQSIGTWLAWYQQKPGKAPKLLIYAASTLRSGVPSRFSGSGSGTDFTLTISSLQPEDFATYYCQQSYSTPYTFGQGTKLEIK
# B3: 19B10 (antibody, human IgG1, V domains shown)
# VH: EVQLLESGGGLVQPGGSLRLSCAASGFTFSSYAMHWVRQAPGKGLEWVSGISNSGGNTYYADSVKGRFTISRDNSKNTLYLQMNSLRAEDTAVYYCARDNYYYYMDVWGKGTTVTVSS
# VL: B2 VL with I29V, G30S, T53N, R55E, S56T, S91T
# B4: 19B6 (antibody, V domains shown)
# VH: QVQLVQSGAEVKKPGASVKVSCKASGYTFTGYYMHWVRQAPGQGLEWMGIINPSGGSTSYAQKFQGRVTMTRDTSTSTVYMELSSLRSEDTAVYYCAKTAGYDWLPSGLGMDVWGQGTTVTVSS
# VL: B2 VL with G30N, T31S, A50Y, T53S, R55Q, S91G, T94V, Y96L, T97S
# B5: 23A11 (antibody, human IgG1, V domains shown)
# VH: QVQLVQSGAEVKKPGSSVKVSCKASGYTFTDYSLHWVRQAPGQGLEWMGEVIPMFDTAYYAQTFQGRVTITADESTSTAYMELSSLRSEDTAVYYCAREPFTMVRGGRYYYYGMDVWGQGTTVTVSS
# VL: DIQMTQSPSSLSASVGDRVTITCRASQNINKNLNWYQQKPGKAPKLLIYDASNLQSGVPSRFSGSGSGTDFTLTISSLQPEDFATYYCQHSETFGQGTKVEIK
# B6: 24H9 (antibody, human IgG1, V domains shown)
# VH: EVQLLESGGGLVQPGGSLRLSCAASGFTFSSYWMSWVRQAPGKGLEWVSAISGSGGSTYYADSVKGRFTISRDNSKNTLYLQMNSLRAEDTAVYYCASSPLQWVDVWGQGTTVTVSS
# VL: DIQMTQSPSSLSASVGDRVTITCRASQGISSWLAWYQQKPGKAPKLLIYSASSLQSGVPSRFSGSGSGTDFTLTISSLQPEDFATYYCQQANSFPFTFGPGTKVDIK
# Molecular target: T1, hPD-1-Fc (human, UniProt Q15116 25-167)
# T1 construct: domain: IgV domain; also called human PD-1-Fc; not shown: human IgG1 Fc
# T1 sequence (Q15116 25-167 limits assumed): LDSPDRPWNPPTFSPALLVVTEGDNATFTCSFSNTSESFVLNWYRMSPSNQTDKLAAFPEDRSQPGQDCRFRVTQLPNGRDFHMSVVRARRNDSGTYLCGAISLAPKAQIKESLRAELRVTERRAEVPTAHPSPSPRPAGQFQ
# Assay: ELISA, hPD1-Fc coated
Binder,EC50,OD450 at 10 nM
B1,0.121 nM,0.916 OD450

# Molecular target: T1, hPD-1-Fc
# Assay: ELISA, hPD-1-Fc coated
Binder,EC50,OD at 10 nM
B2,0.135 nM,1.74 OD450
B3,0.188 nM,1.73 OD450
B4,0.168 nM,1.81 OD450
B5,0.167 nM,2.04 OD450
B6,0.128 nM,1.84 OD450
B1,0.151 nM,1.75 OD450

# Molecular target: T2, human PD-1 expressed on cells (human, UniProt Q15116 25-288)
# T2 sequence (Q15116 25-288): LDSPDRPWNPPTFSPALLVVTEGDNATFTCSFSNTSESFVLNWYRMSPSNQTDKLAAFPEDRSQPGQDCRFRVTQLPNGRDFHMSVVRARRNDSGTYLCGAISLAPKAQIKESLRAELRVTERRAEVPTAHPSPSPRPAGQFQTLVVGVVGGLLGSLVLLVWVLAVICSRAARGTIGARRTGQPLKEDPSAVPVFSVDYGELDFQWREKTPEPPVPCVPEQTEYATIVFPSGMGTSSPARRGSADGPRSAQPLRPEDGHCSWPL
# Assay: cell-based or functional assay
Binder,"EC 50, Promega PD-1/PD-L1 blockade bioassay",Fold of induction
B2,4.73 µg/mL,2.81 fold
B4,2.13 µg/mL,3.04 fold
B6,0.823 µg/mL,3.96 fold
B1,0.688 µg/mL,4.42 fold

# Molecular target: T2, human PD-1 expressed on cells
# Assay: cell-based or functional assay
# Remark: another data set of the same source
Binder,"EC50, Promega blockade bioassay",Fold induction
B6,0.855 µg/mL,4.97 fold
B1,0.551 µg/mL,5.58 fold

# Molecular target: T3, hPD-1-his (human, UniProt Q15116 25-167)
# T3 construct: domain: IgV domain; monomer in solution; biotin-labelled where captured by streptavidin; also called biotin-hPD-1-his
# T3 sequence (Q15116 other isoform, or with tags, fused parts or gaps limits assumed): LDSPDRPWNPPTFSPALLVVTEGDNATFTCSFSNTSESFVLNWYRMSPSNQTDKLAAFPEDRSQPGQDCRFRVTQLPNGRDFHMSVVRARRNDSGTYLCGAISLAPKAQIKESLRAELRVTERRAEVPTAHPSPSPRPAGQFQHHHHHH
# Assay: ELISA, captured hPD-1-his
Binder,EC50,OD at 10 nM
B2,0.523 nM,1.15 OD450
B3,5.34 nM,0.38 OD450
B4,> 100 nM,0.3 OD450
B5,1 nM,0.27 OD450
B6,1.31 nM,0.69 OD450
B1,0.35 nM,1.25 OD450

# Molecular target: T3, hPD-1-his
# Assay: ELISA, hPD-1-his on anti-his
Binder,EC50,OD450 at 10 nM
B1,0.238 nM,0.406 OD450

# Molecular target: T2, human PD-1 expressed on cells
# Assay: flow cytometry, hPD1-293 cells
Binder,EC50,MFI at 68 nM
B2,0.299 nM,105 MFI
B3,16 nM,45.1 MFI
B4,,20.8 MFI
B5,,21.8 MFI
B6,58.7 nM,59 MFI
B1,2.53 nM,38.8 MFI

# Molecular target: T2, human PD-1 expressed on cells
# Assay: flow cytometry, hPD1-293 cells
# Remark: another data set of the same source
Binder,EC50,MFI at 5 nM
B6,2.69 nM,42.8 MFI
B1,0.33 nM,43 MFI

# Molecular target: T2, human PD-1 expressed on cells
# Assay: flow cytometry, hPD1-Jurkat cells
Binder,EC50,MFI at 5 nM
B6,0.77 nM,80.6 MFI
B1,0.42 nM,120 MFI

# Molecular target: T1, hPD-1-Fc
# Assay: blocking ELISA, hPD-1-Fc to hPD-L1-Fc
Binder,IC50,Inhibition % (3.3 nM),Inhibition % (30 nM)
B2,1.85 nM,80.5%,93.1%
B3,28.1 nM,22.9%,65.2%
B4,2.69 nM,51.9%,85.9%
B5,2.61 nM,54.9%,86.6%
B6,2.28 nM,70%,92.9%
B1,2.04 nM,82.5%,94.7%

# Molecular target: T1, hPD-1-Fc
# Assay: blocking ELISA, hPD-1-Fc to hPD-L1-Fc
# Remark: another data set of the same source
Binder,IC50,Inhibition % at 5.6 nM,Inhibition % at 50 nM
B1,1.27 nM,88.6%,90.4%

# Molecular target: T1, hPD-1-Fc
# Assay: SPR Biacore T200, PD-1-Fc immobilised
row,Binder,Kd
1,B6,1.46 nM
2,B1,0.928 nM

# Molecular target: T3, hPD-1-his
# Assay: SPR Biacore T200, PD-1-his immobilised
row,Binder,Kd
1,B6,13.9 nM
2,B1,4.91 nM

# Molecular target: T3, hPD-1-his
# Assay: ELISA, biotin-hPD-1-his on streptavidin
Binder,EC50,OD450 at 10 nM
B1,0.18 nM,0.89 OD450

# Molecular target: T2, human PD-1 expressed on cells
# Assay: flow cytometry, SEB-activated PBMC donor three
Binder,EC50,MFI at 100 nM
B2,1.89 nM,80.3 MFI
B3,104 nM,25.2 MFI
B4,10.7 nM,51.2 MFI
B5,13.4 nM,46.2 MFI
B6,0.913 nM,70.5 MFI
B1,0.829 nM,109 MFI

# Molecular target: T2, human PD-1 expressed on cells
# Assay: flow cytometry, SEB-activated PBMC donor one
Binder,EC50,MFI at 100 nM
B2,1.51 nM,19.9 MFI
B3,117 nM,12.4 MFI
B4,13.6 nM,13.7 MFI
B5,19 nM,14.6 MFI
B6,1.37 nM,18.7 MFI
B1,0.993 nM,26.2 MFI
